In assay [1] the target is endophilin SH3 (SH3G2_HUMAN), Q99962. The assay can be described thus: SPOT array.
Assay [2] has as its target T1, amphyphisin SH3 (AMPH_HUMAN), P49418.
T1 chain: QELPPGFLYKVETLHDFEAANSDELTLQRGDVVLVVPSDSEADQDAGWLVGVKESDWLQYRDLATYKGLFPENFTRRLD
As to the kind of experiment: SPOT array.

Among the data in article PMC314469, “Protein Interaction Networks by Proteome Peptide Scanning” (PLoS Biology, 2004) are normalised SPOT signal, Boehringer light units (BLU); mean over the file's lines of this peptide values, retold here.

On to YTVPPARPPPPLTK [O43308 48-62], for which the normalised SPOT signal, Boehringer light units (BLU); mean over the file's lines of this peptide in assay [1] turned out to be 9170; in assay [2], 211.

Take YYQIIKRPMDLSII [Q9BQQ4 1075-1088]: the normalised SPOT signal, Boehringer light units (BLU); mean over the file's lines of this peptide was 85.7 in assay [1] and 78.4 in assay [2].

As for YSLLFRRPPPSPSP [Q9NZY4 11-24], the normalised SPOT signal, Boehringer light units (BLU); mean over the file's lines of this peptide in assay [1] was 175; in assay [2], 204.

With YRLPPTRPPASVSP [Q96LR7 16-30], the normalised SPOT signal, Boehringer light units (BLU); mean over the file's lines of this peptide in assay [1] was 1510; in assay [2], 150.

Turning to YHPPIFRPMKRITW [Q9GZT8 65-78], the normalised SPOT signal, Boehringer light units (BLU); mean over the file's lines of this peptide in assay [1] amounted to 293; in assay [2] it was 145.

As to YKPPLSRPLRPGPW [Q9H1B5 714-727], the normalised SPOT signal, Boehringer light units (BLU); mean over the file's lines of this peptide in assay [1] turned out to be 263; in assay [2] it was 1210.

As to YPARPRRPASTAGS [Q9BTV6 12-25], the normalised SPOT signal, Boehringer light units (BLU); mean over the file's lines of this peptide in assay [1] is 2010; in assay [2], 4030.

As to YLGKPSRPPHLLLE [Q9H5Q4 87-101], the normalised SPOT signal, Boehringer light units (BLU); mean over the file's lines of this peptide was 1770 in assay [1] and 44.1 in assay [2].

For YRQQPKRPQKHIQK [Q9NPG4 759-772], the normalised SPOT signal, Boehringer light units (BLU); mean over the file's lines of this peptide was 183 in assay [1] and 103 in assay [2].

Consider YRRRFSRPSRARDI [Q03188 13-26], for which the normalised SPOT signal, Boehringer light units (BLU); mean over the file's lines of this peptide amounted to 85.1 in assay [1] and 469 in assay [2].

As for YKVNLKRPSPFWND [Q96HE7 77-90], the values for the normalised SPOT signal, Boehringer light units (BLU); mean over the file's lines of this peptide in assay [1] and in assay [2] were 28.6 and 47.4, respectively.

Turning to SRLTLLRPKKDGAA [Q9H7S7 172-185], the normalised SPOT signal, Boehringer light units (BLU); mean over the file's lines of this peptide in assay [1] turned out to be 159; in assay [2] it was 199.

Consider YPQDLPRPLRSREF [O43734 232-245], for which the figures for the normalised SPOT signal, Boehringer light units (BLU); mean over the file's lines of this peptide in assay [1] and in assay [2] were 95.9 and 154, respectively.

In the case of YPNKIKRPSLEDVT [Q13495 6-19], the normalised SPOT signal, Boehringer light units (BLU); mean over the file's lines of this peptide was 94.9 in assay [1] and 24.9 in assay [2].

On to YLTVLGRPDRPRDL [O94856 414-427], for which the normalised SPOT signal, Boehringer light units (BLU); mean over the file's lines of this peptide is 127 in assay [1] and 386 in assay [2].

As for SRNVLRRPFQAQSG [Q12933 37-50], the results for the normalised SPOT signal, Boehringer light units (BLU); mean over the file's lines of this peptide in assay [1] and in assay [2] were 112 and 31.6, respectively.

For YQEYLKRPPESPPI [Q9BTL3 26-39], the normalised SPOT signal, Boehringer light units (BLU); mean over the file's lines of this peptide in assay [1] is 42.7; in assay [2], 34.1.

Turning to YKVSPGRPPGSIKA [BAC04448 133-147], the normalised SPOT signal, Boehringer light units (BLU); mean over the file's lines of this peptide in assay [1] is 553; in assay [2] it was 48.6.

As to YVDVIKRPLVKNPV [Q9P2Q0 703-716], the figures for the normalised SPOT signal, Boehringer light units (BLU); mean over the file's lines of this peptide in assay [1] and in assay [2] were 29.7 and 26.4, respectively.

On to YQRLPRRPGEPREV [Q9UHC9 721-734], for which the normalised SPOT signal, Boehringer light units (BLU); mean over the file's lines of this peptide in assay [1] was found to be 143; in assay [2], 116.

For the molecule YQGGPPRPPMGMRP [O43670 455-469], the normalised SPOT signal, Boehringer light units (BLU); mean over the file's lines of this peptide came to 614 in assay [1] and 87.9 in assay [2].

Consider YQHHPKRPSRQIHK [Q9HCL0 744-757], for which the results for the normalised SPOT signal, Boehringer light units (BLU); mean over the file's lines of this peptide in assay [1] and in assay [2] were 432 and 3940, respectively.

For the molecule YHPNPKRPGLDREQ [Q8WXI7 2968-2981], the normalised SPOT signal, Boehringer light units (BLU); mean over the file's lines of this peptide was 34.1 in assay [1] and 43.3 in assay [2].

For ASLPPPRPQRPAET [Q9UFB1 199-212], the normalised SPOT signal, Boehringer light units (BLU); mean over the file's lines of this peptide in assay [1] stood at 81.6; in assay [2], 210.

For the molecule SQKAFKRPSDLRQH [Q9P2F9 337-350], the normalised SPOT signal, Boehringer light units (BLU); mean over the file's lines of this peptide in assay [1] was found to be 19; in assay [2], 61.1.

As to SRLTLLRPEKDGTA [Q9H7S7 328-341], the normalised SPOT signal, Boehringer light units (BLU); mean over the file's lines of this peptide in assay [1] was 112; in assay [2] it was 242.

Consider YLQLPPRPPGTRAS [Q9H4M7 331-345], for which the results for the normalised SPOT signal, Boehringer light units (BLU); mean over the file's lines of this peptide in assay [1] and in assay [2] were 1230 and 235, respectively.

Turning to SRLTLLRPEKDGAA [Q9H7S7 16-29], the normalised SPOT signal, Boehringer light units (BLU); mean over the file's lines of this peptide in assay [1] was 71.4; in assay [2], 297.

As for YHPPIFRPMKRINL [Q9HC18 65-78], the normalised SPOT signal, Boehringer light units (BLU); mean over the file's lines of this peptide was found to be 250 in assay [1] and 164 in assay [2].

For YTSKIFRPPRASHS [Q9Y397 160-173], the normalised SPOT signal, Boehringer light units (BLU); mean over the file's lines of this peptide amounted to 325 in assay [1] and 1790 in assay [2].

As to YYLLPERPPYLDKY [Q9UD05 393-407], the values for the normalised SPOT signal, Boehringer light units (BLU); mean over the file's lines of this peptide in assay [1] and in assay [2] were 108 and 57.4, respectively.

On to YKVNLKRPSPFWAE [Q9NR62 73-86], for which the results for the normalised SPOT signal, Boehringer light units (BLU); mean over the file's lines of this peptide in assay [1] and in assay [2] were 42.2 and 30.9, respectively.

As for YIFSLVRPARYQRV [P41440 139-152], the normalised SPOT signal, Boehringer light units (BLU); mean over the file's lines of this peptide amounted to 1780 in assay [1] and 2220 in assay [2].

YSSSLERPRKLRAV [O75042 916-929]: the normalised SPOT signal, Boehringer light units (BLU); mean over the file's lines of this peptide was 137 in assay [1] and 78.3 in assay [2].

With YHLPLRRPSPGFSW [O95428 295-308], the normalised SPOT signal, Boehringer light units (BLU); mean over the file's lines of this peptide in assay [1] was found to be 1270; in assay [2], 135.

SQPGPAKPPAHRPS [Q9NPM2 248-262]: the normalised SPOT signal, Boehringer light units (BLU); mean over the file's lines of this peptide in assay [1] came to 176; in assay [2], 39.8.

For SPPIPRRPAEPPWP [Q9HBU2 317-330], the figures for the normalised SPOT signal, Boehringer light units (BLU); mean over the file's lines of this peptide in assay [1] and in assay [2] were 1380 and 33, respectively.

Turning to YRHGISRPLRPLSS [Q9UBX1 412-425], the figures for the normalised SPOT signal, Boehringer light units (BLU); mean over the file's lines of this peptide in assay [1] and in assay [2] were 867 and 1500, respectively.
